Laboratory results published in patent US12460006B2, “Antibodies against integrin alpha 11 beta 1” (Momenta Pharmaceuticals, Inc., priority 2019, dated 2025).
Entries after “also recorded” stand apart in the source; their conditions may differ.

T1: I domain of α11β1 (Homo sapiens, UniProt Q9UKX5)
T1 construct: An in-house generated I domain of α11β1 was used; made in house
T1 sequence (Q9UKX5 164-345 limits assumed): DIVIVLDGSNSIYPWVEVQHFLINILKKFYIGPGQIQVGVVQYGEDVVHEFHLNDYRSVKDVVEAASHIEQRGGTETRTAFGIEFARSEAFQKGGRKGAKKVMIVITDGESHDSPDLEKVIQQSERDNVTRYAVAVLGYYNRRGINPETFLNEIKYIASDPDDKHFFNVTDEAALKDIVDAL

T2: α11β1 expressed on the surface of CHO-K1 cells (Homo sapiens, UniProt Q9UKX5)
T2 construct: expressed in transfected cells; host or cells: CHO-K1
T2 sequence (Q9UKX5 23-1188): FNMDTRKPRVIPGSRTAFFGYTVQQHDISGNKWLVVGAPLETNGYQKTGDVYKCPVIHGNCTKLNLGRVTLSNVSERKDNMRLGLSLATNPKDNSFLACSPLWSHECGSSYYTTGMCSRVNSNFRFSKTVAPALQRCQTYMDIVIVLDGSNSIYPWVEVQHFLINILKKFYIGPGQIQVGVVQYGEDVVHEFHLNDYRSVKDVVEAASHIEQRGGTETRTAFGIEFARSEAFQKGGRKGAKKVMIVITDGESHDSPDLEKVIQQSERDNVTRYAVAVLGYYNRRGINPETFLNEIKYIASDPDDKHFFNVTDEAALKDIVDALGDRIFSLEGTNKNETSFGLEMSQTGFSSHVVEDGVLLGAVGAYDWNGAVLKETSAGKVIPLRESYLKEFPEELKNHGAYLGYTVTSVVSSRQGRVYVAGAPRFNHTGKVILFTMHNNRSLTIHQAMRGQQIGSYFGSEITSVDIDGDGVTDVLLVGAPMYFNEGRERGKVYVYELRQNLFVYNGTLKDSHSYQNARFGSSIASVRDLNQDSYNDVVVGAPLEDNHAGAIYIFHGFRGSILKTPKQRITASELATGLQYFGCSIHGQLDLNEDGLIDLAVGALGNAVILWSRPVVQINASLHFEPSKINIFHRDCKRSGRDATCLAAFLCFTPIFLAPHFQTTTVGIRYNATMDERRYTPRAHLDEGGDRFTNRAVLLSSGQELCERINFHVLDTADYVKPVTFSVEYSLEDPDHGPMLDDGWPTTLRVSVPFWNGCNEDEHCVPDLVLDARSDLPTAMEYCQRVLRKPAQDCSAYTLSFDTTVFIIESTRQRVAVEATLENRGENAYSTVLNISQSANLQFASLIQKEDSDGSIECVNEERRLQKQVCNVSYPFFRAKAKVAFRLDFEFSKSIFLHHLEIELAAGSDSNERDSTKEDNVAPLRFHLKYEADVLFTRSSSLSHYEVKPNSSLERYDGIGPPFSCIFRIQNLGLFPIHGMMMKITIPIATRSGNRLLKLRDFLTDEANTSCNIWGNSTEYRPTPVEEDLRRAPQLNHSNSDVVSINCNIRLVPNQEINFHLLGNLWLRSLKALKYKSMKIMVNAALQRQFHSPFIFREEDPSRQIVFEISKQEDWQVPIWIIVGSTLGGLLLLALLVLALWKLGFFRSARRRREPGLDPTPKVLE


Tests used:
I domain of α11β1 = biological target: T1, I domain of α11β1; test: ELISA binding to in-house generated I domain of α11β1; conditions: for binding to I domain of α11β1 (high, medium, low): ELISA; for I Domain binding: Yes/No
Method: 0.25 μg/mL of target antigen (recombinant human or mouse α11β1) was plated in a 96-well plate over night at 4° C. Plates were washed (PBS with 0.1% Tween-20), blocked (PBS with 2% BSA and 0.05% Tween-20) for 1 hour at room temperature and incubated with a range of antibody concentrations for 1 hour at room temperature. Subsequently, plates were washed and incubated with biotinylated anti-rabbit/mouse/human IgG in a 1:1000 dilution buffer and incubated for 1 hour at room temperature. After washing the plates, Streptavidin HRP was added at 1:200 in dilution buffer and incubated for 1 hour at room temperature. Ultra TMB ELISA substrate solution was added and the plates incubated for 5 minutes on a plate shaker. The reaction was stopped by adding stop solution to each well and plates were read at 450 nm.
22 Data was also collected to determine whether antibodies of interest bind to the I domain of α11β1. An in-house generated I domain of α11β1 was used. […] Mouse antibodies 10-F23, 10-L15, 7-O8, 6-A12, 9-G05 and 9-E16 and rabbit antibodies 7-H12 and 2-D3 were also tested for binding against the in-house generated α11031 domain. FIGS. 3A and 3B show graphs illustrating binding data from exemplary mAbs.

[1] = system: human pulmonary fibroblasts (HPFs); test: FACS antibody binding to human pulmonary fibroblasts; conditions: binding Yes/No
Method: (§1) Human Pulmonary Fibroblasts (ScienCell) were cultured in complete Fibroblast Growth Medium (ScienCell) until 80% confluent in T-150 flasks. Cells were washed and harvested using Accutase. Cells were seeded into T-150 flasks at 7,500 cells/cm^2 in complete FGF and cultured for 72 hours. Cells were then washed and starved in serum reduced medium for 24 hours. After starvation, cells were treated with TGFβ-1 (R&D Systems) for 72 hours. Cells were harvested using Accutase and seeded in 96-well conical bottom plates. Cells were blocked with Heat Inactived Fetal Bovine Serum (Gibco) for 30 minutes at 4° C. Cells were then incubated with anti-α11 antibodies at the doses described in each figure for 30 minutes at 4° C. A human anti-α11 antibody (Creative BioLabs) was included as a positive control as well as the appropriate IgG isotype negative controls. Cells were washed twice and incubated with PE conjugated secondary antibodies specific to the IgG class of the anti-α11 antibodies being tested for 30 minutes at 4° C. Cells were washed twice and fixed in 1% PFA for 30 minutes. Cells were acquired on a FACS Verse […]. Data were analyzed by gating on single cells and determining the geometric Mean Fluorescence Intensity (gMFI) in the PE channel for each sample.
(§2) Binding to a physiologically relevant primary human cell type was also tested. Human pulmonary fibroblasts (HPF) and TGFβ treatment were used to induce a fibroblast-to-myofibroblast transition (FMT), giving rise to myofibroblasts (MF). […] Additionally, HPFs express α11 and α2β1, other collagen binding receptors, which means that HPFs can be to test cross-reactivity of antibodies of interest.

[2] = biological target: T2, α11β1 expressed on the surface of CHO-K1 cells; test: FACS antibody binding to CHO-K1 cells expressing human α11; conditions: for CHO-K1 FACS: binding Yes/No; for CHO-K1 binding EC50 (in words): FACS
Method: 200,000 cells (wild-type CHO-K1 cells or CHO-K1 cells expressing human α11) were incubated with each antibody at desired concentrations in FACS buffer for 30 min at 4° C. Then, the cells were washed with FACS buffer and incubated with secondary antibody at 1:100 dilution for 30 minutes at 4° C. Cells were then washed and fixed with 1% PFA in PBS for 20 minutes at room temperature; washed again and read on a cytometer in FACS buffer.
Since integrins are large, transmembrane receptors that exist in different conformational shapes, experiments were performed to confirm that the novel antibodies also bound cell-expressed α11β1. A CHO-K1 cell line that endogenously expressed high levels of the β1 subunit was engineered to stably express human α11 (CHO-K1 hu α11).
Binding EC50 was estimated using data from Fluorescence-activated cell sorting (FACS) performed with CHO-K1 hu α11β1 cells.

myofibroblasts (MF) = test: FACS antibody binding to myofibroblasts; design: species or system human; conditions: binding Yes/No
Method: as §1, §2

Row | Molecule | binding to I domain of α11β1 (high, medium, low) (I domain of α11β1) | I Domain binding (I domain of α11β1) | HPF FACS [1] | CHO-K1 FACS [2] | MF FACS (myofibroblasts (MF)) | CHO-K1 binding EC50 (in words) [2] | I-domain binder (I domain of α11β1)
1 | 18E10F10: rat anti-α11β1 mAb; VH SEQ ID NO: 155, VL SEQ ID NO: 156 (antibody, V domains shown) VH: MDIRLSLVFLVLFMKGVQCEVQLVESGGGLVQPGRSLKLSCAASRFTFSDYNMAWVRQAPKKGLEWVATIYHDDSGSYYRDSVKGRFTISRNNAKSTLYLQMDSLRSEDMATYYCARHNNGFDYWGQGVMVTVAS VL: MKWPVRLLVLFFWIPASGGDVVMTQTPVSLPVRLGGQASISCRSSQSLVHSNGNTYLHWYLQKPGQSPQLLINRVSNRFSGVPDRFSGSGSGTDFTLKINRVEPEDLGDYYCLQSTHFPLTFGSGTKLETK |  | No |  | Yes |  |  | 
2 | 8H8E9: rat anti-α11β1 mAb; VH SEQ ID NO: 149, VL SEQ ID NO: 150 (antibody, V domains shown) VH: MAVLVLLLCLVTFPSCALSQVQLKESGPGLVQPSQTLSLTCTVSGFSLTSNSVSWVRQAPGKGLEWMGAIWSGGSTDYNSALKSRLSISRDTSKSQVFLKMNSLQTEDTAIYFCTRSHWEPFDYWGQGVMVTVSS VL: MESQTQALISLLLWVYGTCGDIVMTQSPFSLAVSEGEMVTINCKSSQGLLSSGNQKNYLAWYQQRPGQSPKLLIYYASTRQSGVPDRFIGGGSGTDFTLTISDVQAEDLADYYCLQHYSYPPTFGSGTKLEIK | medium | No |  | Yes |  |  | 
3 | 6E5C11: rat anti-α11β1 mAb; VH SEQ ID NO: 151, VL SEQ ID NO: 152 (antibody, V domains shown) VH: MAVLVLLLCLVTFPSCALSQVQLRESGPGLVQPSQTLSLTCTVSGFSLTSNSVTWVRQPPGKGLEWMGAIWSDGSTDYNSTLKSRLSISRDTSKSQVFLKMSSLQTEDTAIYFCTRSHWEPFDYWGQGVMVTVSS VL: MESQTQALISLLLWVYGTCGDIVMTQSPLSLAVSEGETVTMNCKSSQSLFSSGNQKNYLAWYQQKPGQSPKLLIYYASTRQSGVPDRFIGSGSGTDFTLTISDVQTEDLADYYCLQHYNYPPTFGSGTKLEIK | low | No |  | Yes |  |  | 
4 | 8-P20: mouse anti-α11β1 mAb; VH SEQ ID NO: 105, VL SEQ ID NO: 106 (antibody, V domains shown) VH: KVMLVESGGALVKPGGSLKLSCVASGFTFSNYAMSWVRQTPEKRLEWVATISSGGYYTYYPDSVKGRFTISRDNARNTLFLQMSSLRSEDTAMFYCAREDDYGRYSYTMDYWGQGTSVTVSS VL: DVVMTQTPLSLPVSLGDQVSISCRCSQSLVHSNGNTYLHWYLQKPGQSPQLLIYKISNRFSGVPDRFSGSGSGTDFTLKISRVEAEDLGVYFCSQSTHVPYTFGGGTELEIK |  | No | No | Yes | Yes | low nanomolar range | 
5 | 8-J17: mouse anti-α11β1 mAb; VH SEQ ID NO: 113, VL SEQ ID NO: 114 (antibody, V domains shown) VH: QVQLQQSGAELAKPGASVKMSCKASGYTFTNYWMHWVKQRPGQGLEWIGYINPNNGYTEYNQRFKDKATLTADRSSTTAYMQLSSLTSEDSAVYYCARSDIITTDYWGQGTTLTVSS VL: DVVMTQTPLSLPVSLGDQASISCRSSQSLVYSNGNTYLHWYLQKPGQSPKLLIYKVSNRFSGVPDRFSGSGSGTDFTLKISRVEAEDLGVYFCSQSTHVPWTFGGGTKLEIK |  | No | No | Yes | Yes | low nanomolar range | 

More lines, main results first:

Row | binding to I domain of α11β1 (high, medium, low) (I domain of α11β1) | I Domain binding (I domain of α11β1) | HPF FACS [1] | CHO-K1 FACS [2] | MF FACS (myofibroblasts (MF)) | CHO-K1 binding EC50 (in words) [2] | Molecule | I-domain binder (I domain of α11β1)
6 | high | Yes | No | Yes | Yes |  | 79E3E3: rat anti-α11β1 mAb; VH SEQ ID NO: 145, VL SEQ ID NO: 146 (antibody, V domains shown) VH: MDWLWNLLFLMVVAQSAQAQIQLVQSGPEVKKPGESVKISCKASGYTFTDYAMNWVKQAPGNGLKWMGWINTQTGKPTYADDFKQRFVFSLETSARTTYLQINNLNIEDTATYFCTRLGTGNTKGFAYWGQGTLVTVSS VL: MESQTHVLISLLLCVSGTCGDILINQSPASLTVSAGERVTMSCKSSQSLLYSENNQDYLAWYQQKPGQFPKLLIYGASNRHTGVPDRFTGSGSGTDFTLTISSVQAEDLADYYCEQTYRYPFTFGSGTKLEIK | found to be an I-domain binder
7 |  | No |  | Yes |  |  | 40G10H11: rat anti-α11β1 mAb; VH SEQ ID NO: 157, VL SEQ ID NO: 158 (antibody, V domains shown) VH: MDIRLSLGFLVLFIKGDQCAVQLVESGGGLVQPGRSLKLSCAASRITFTDYYMAWVRQAPTKGLEWVATISSDGGDTFYRDSVKGRFTISRDNAKSTLYLQMVSLRSEDTATYYCSTDRGAQFGYWGQGTLVTVSS VL: MAPVQLLGLLLIWLPAMRCDIQMTQSPSFLSASVGDRVSINCKASQNVHENLNWYQQKLGEAPKRLIYNTNNLQTGIPSRFSGSGSGADYTLTISSLQPEDFATYFCLQHNAFPYTFGPGTKLELK | not found to be an I-domain binder; also recorded: neither of the antibodies was found to be an I-domain binder
